B1: STX5 (parent)
chain: ESTIVELGSIFQQLAHMVKEQEET

Variants of: B1
Test: protein stability index of a GFP-peptide fusion (GPS, HEK-293T) (PSI 1-6); higher = more stable
Details: c terminus: a fixed tail appended
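Further: lentivirally expressed fusions sorted by FACS into six bins by GFP to DsRed ratio, PSI derived from sequencing read proportions per bin multiplied by bin number.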

Variant	protein stability index
ESTIVELGSIFQSLAHMVKEQEET	2.95
ESTIVELGSIFQMLAHMVKEQEET	1.98
ESTIVELGSIFQPLAHMVKEQEET	4.54
ESTIVELGSIFQNLAHMVKEQEET	2.23
ESTIVELGSIFQTLAHMVKEQEET	3.28
ESTIVELGSIFQYLAHMVKEQEET	2.37
ESTIVELGSIFQGLAHMVKEQEET	4.12
ESTIVELGSIFQVLAHMVKEQEET	2.16
ESTIVELGSIFQWLAHMVKEQEET	1.88
ESTIVELGSIFQLLAHMVKEQEET	1.54
ESTIVELGSIFQILAHMVKEQEET	1.44
ESTIVELGSIFQKLAHMVKEQEET	2.8
ESTIVELGSIFQHLAHMVKEQEET	2.43
ESTIVELGSIFQCLAHMVKEQEET	2.32
ESTIVELGSIFQELAHMVKEQEET	2.57
ESTIVELGSIFQFLAHMVKEQEET	1.57
ESTIVELGSIFQALAHMVKEQEET	2.4
ESTIVELGSIFQQLRHMVKEQEET	2.67
ESTIVELGSIFQQLIHMVKEQEET	1.53
ESTIVELGSIFQQLPHMVKEQEET	4.91
ESTIVELGSIFQQLQHMVKEQEET	2.81
ESTIVELGSIFQQLTHMVKEQEET	3.66
ESTIVELGSIFQQLHHMVKEQEET	3.15
ESTIVELGSIFQQLFHMVKEQEET	2.09

Variant	protein stability index
ESTIVELGSIFQQLVHMVKEQEET	2.24
ESTIVELGSIFQQLCHMVKEQEET	2.21
ESTIVELGSIFQQLYHMVKEQEET	1.74
ESTIVELGSIFQQLGHMVKEQEET	3.91
ESTIVELGSIFQQLEHMVKEQEET	4.21
ESTIVELGSIFQQLSHMVKEQEET	2.99
ESTIVELGSIFQQLDHMVKEQEET	4.28
ESTIVELGSIFQQLKHMVKEQEET	3.1
ESTIVELGSIFQQLWHMVKEQEET	2.18
ESTIVELGSIFQQLNHMVKEQEET	3.67
ESTIVELGSIFQQLMHMVKEQEET	1.74
ESTIVELGSIFQQLLHMVKEQEET	1.76
ESTIVELGSIAQQLAHMVKEQEET	3.83
ESTIVELGSIDQQLAHMVKEQEET	5.77
ESTIVELGSIHQQLAHMVKEQEET	5.76
ESTIVELGSIKQQLAHMVKEQEET	4.85
ESTIVELGSINQQLAHMVKEQEET	5.61
ESTIVELGSICQQLAHMVKEQEET	3.62
ESTIVELGSIIQQLAHMVKEQEET	2.27
ESTIVELGSIYQQLAHMVKEQEET	3.19
ESTIVELGSIGQQLAHMVKEQEET	5.35
ESTIVELGSIRQQLAHMVKEQEET	4.92
ESTIVELGSISQQLAHMVKEQEET	4.27
ESTIVELGSIPQQLAHMVKEQEET	4.65

Variant	protein stability index
ESTIVELGSITQQLAHMVKEQEET	4.81
ESTIVELGSIQQQLAHMVKEQEET	3.48
ESTIVELGSIWQQLAHMVKEQEET	2.83
ESTIVELGSIVQQLAHMVKEQEET	3.19
ESTIVELGSIMQQLAHMVKEQEET	2.98
ESTIVELGSILQQLAHMVKEQEET	2.8
ESTIVELGSIFQQLAHMAKEQEET	3.27
ESTIVELGSIFQQLAHMFKEQEET	1.81
ESTIVELGSIFQQLAHMGKEQEET	4.6
ESTIVELGSIFQQLAHMLKEQEET	1.8
ESTIVELGSIFQQLAHMKKEQEET	4.16
ESTIVELGSIFQQLAHMHKEQEET	3.73
ESTIVELGSIFQQLAHMDKEQEET	5.09
ESTIVELGSIFQQLAHMEKEQEET	4.64
ESTIVELGSIFQQLAHMCKEQEET	2.44
ESTIVELGSIFQQLAHMIKEQEET	2.41
ESTIVEYGSIFQQLAHMVKEQEET	3.97
ESTIVEWGSIFQQLAHMVKEQEET	2.99
ESTIVELGSEFQQLAHMVKEQEET	5.46
ESTIVELGSKFQQLAHMVKEQEET	3.69
ESTIVELGSNFQQLAHMVKEQEET	5.07
ESTIVELGSDFQQLAHMVKEQEET	5.88
ESTIVELGSPFQQLAHMVKEQEET	5.58
ESTIVELGSMFQQLAHMVKEQEET	2.6

Variant	protein stability index
ESTIVELGSCFQQLAHMVKEQEET	3.72
ESTIVELGSAFQQLAHMVKEQEET	4.32
ESTIVELGSQFQQLAHMVKEQEET	4.27
ESTIVELGSWFQQLAHMVKEQEET	2.58
ESTIVELGSSFQQLAHMVKEQEET	4.89
ESTIVELGSRFQQLAHMVKEQEET	3.9
ESTIVELGSTFQQLAHMVKEQEET	4.49
ESTIVELGSFFQQLAHMVKEQEET	2.26
ESTIVELGSYFQQLAHMVKEQEET	3.49
ESTIVELGSHFQQLAHMVKEQEET	4.5
ESTIVELGSVFQQLAHMVKEQEET	3.1
ESTIVELGSLFQQLAHMVKEQEET	2.63
ESTIVELGYIFQQLAHMVKEQEET	1.46
ESTIVELGGIFQQLAHMVKEQEET	3.22
ESTIVELGAIFQQLAHMVKEQEET	1.65
ESTIVELGHIFQQLAHMVKEQEET	2.64
ESTIVELGKIFQQLAHMVKEQEET	2.34
ESTIVELGNIFQQLAHMVKEQEET	2.26
ESTIVELGMIFQQLAHMVKEQEET	1.87
ESTIVELGEIFQQLAHMVKEQEET	2.08
ESTIVELGCIFQQLAHMVKEQEET	1.63
ESTIVELGVIFQQLAHMVKEQEET	1.8
ESTIVELGDIFQQLAHMVKEQEET	2.55
ESTIVELGQIFQQLAHMVKEQEET	2.1

Variant	protein stability index
ESTIVELGLIFQQLAHMVKEQEET	1.71
ESTIVELGRIFQQLAHMVKEQEET	2.41
ESTIVELGIIFQQLAHMVKEQEET	1.32
ESTIVELGTIFQQLAHMVKEQEET	2.11
ESTIVELGSIFWQLAHMVKEQEET	1.32
ESTIVELGSIFKQLAHMVKEQEET	1.79
ESTIVELGSIFYQLAHMVKEQEET	2.17
ESTIVELGSIFRQLAHMVKEQEET	2.4
ESTIVELGSIFLQLAHMVKEQEET	3.46
ESTIVELGSIFTQLAHMVKEQEET	1.93
ESTIVELGSIFVQLAHMVKEQEET	2.07
ESTIVELGSIFIQLAHMVKEQEET	2.26
ESTIVELGSIFDQLAHMVKEQEET	3.34
ESTIVELGSIFNQLAHMVKEQEET	2.99
ESTIVELGSIFFQLAHMVKEQEET	2.26
ESTIVELGSIFAQLAHMVKEQEET	1.98
ESTIVELGSIFMQLAHMVKEQEET	1.98
ESTIVELGSIFHQLAHMVKEQEET	3.15
ESTIVELGSIFCQLAHMVKEQEET	1.7
ESTIVELGSIFSQLAHMVKEQEET	2.1
ESTIVELGSIFPQLAHMVKEQEET	4.39
ESTIVELGSIFQQLAHKVKEQEET	2.06
ESTIVELGSIFQQLAHHVKEQEET	3.7
ESTIVELGSIFQQLAHCVKEQEET	3.6

Variant	protein stability index
ESTIVELGSIFQQLAHFVKEQEET	2.46
ESTIVELGSIFQQLAHTVKEQEET	4.18
ESTIVELGSIFQQLAHWVKEQEET	2.06
ESTIVELGSIFQQLAHDVKEQEET	4.11
ESTIVELGSIFQQLAHPVKEQEET	4.59
ESTIVELGSIFQQLAHGVKEQEET	3.86
ESTIVELGSIFQQLAHAVKEQEET	2.83
ESTIVELGSIFQQLAHEVKEQEET	3.41
ESTIVELGSIFQQLAHIVKEQEET	2.3
ESTIVELGSIFQQLAHSVKEQEET	3.4
ESTIVELGSIFQQLAHNVKEQEET	4.16
ESTIVELGSIFQQLAHQVKEQEET	2.26
ESTIVELGSIFQQLAHLVKEQEET	1.7
ESTIVELGSIFQQLAHRVKEQEET	3
ESTIVELGSIFQQLAHYVKEQEET	3.29
ESTIVELGSIFQQLATMVKEQEET	3.09
ESTIVELGSIFQQLAKMVKEQEET	2.27
ESTIVELGSIFQQLAQMVKEQEET	1.33
ESTIVELGSIFQQLADMVKEQEET	1.78
ESTIVELGSIFQQLAGMVKEQEET	2.13
ESTIVELGSIFQQLAEMVKEQEET	1.96
ESTIVELGSIFQQLAAMVKEQEET	2.13
ESTIVELGSIFQQLAVMVKEQEET	2.43
ESTIVELGSIFQQLARMVKEQEET	1.79

Variant	protein stability index
ESTIVELGSIFQQLASMVKEQEET	2.36
ESTIVELGSIFQQLAIMVKEQEET	1.88
ESTIVELGSIFQQLALMVKEQEET	2.75
ESTIVELGSIFQQLAMMVKEQEET	3
ESTIVELGSIFQQLAFMVKEQEET	2.02
ESTIVELGSIFQQLAYMVKEQEET	1.67
ESTIVELGSIFQQLAPMVKEQEET	4.65
ESTIVELGSIFQQLANMVKEQEET	1.97
ESTIVELSSIFQQLAHMVKEQEET	2.79
ESTIVELHSIFQQLAHMVKEQEET	2.48
ESTIVELDSIFQQLAHMVKEQEET	2.28
ESTIVELQSIFQQLAHMVKEQEET	1.68
ESTIVELMSIFQQLAHMVKEQEET	1.35
ESTIVELLSIFQQLAHMVKEQEET	1.85
ESTIVELASIFQQLAHMVKEQEET	2.47
ESTIVELESIFQQLAHMVKEQEET	3.02
ESTIVELRSIFQQLAHMVKEQEET	1.84
ESTIVELYSIFQQLAHMVKEQEET	3.89
ESTIVELCSIFQQLAHMVKEQEET	2.33
ESTIVELISIFQQLAHMVKEQEET	2.24
ESTIVELNSIFQQLAHMVKEQEET	2.44
ESTIVELKSIFQQLAHMVKEQEET	1.94
ESTIVELFSIFQQLAHMVKEQEET	2.06
ESTIVELPSIFQQLAHMVKEQEET	3.99

Variant	protein stability index
ESTIVELTSIFQQLAHMVKEQEET	2.69
ESTIVELGSIFQQRAHMVKEQEET	5.32
ESTIVELGSIFQQTAHMVKEQEET	4.78
ESTIVELGSIFQQFAHMVKEQEET	1.69
ESTIVELGSIFQQEAHMVKEQEET	5.33
ESTIVELGSIFQQDAHMVKEQEET	5.05
ESTIVELGSIFQQMAHMVKEQEET	3.77
ESTIVELGSIFQQSAHMVKEQEET	5.26
ESTIVELGSIFQQQAHMVKEQEET	4.75
ESTIVELGSIFQQHAHMVKEQEET	4.11
ESTIVELGSIFQQYAHMVKEQEET	1.81
ESTIVELGSIFQQGAHMVKEQEET	4.64
ESTIVELGSIFQQPAHMVKEQEET	4.93
ESTIVELGSIFQQCAHMVKEQEET	4.42
ESTIVELGSIFQQIAHMVKEQEET	2.09
ESTIVELGSIFQQAAHMVKEQEET	4.31
ESTIVELGSIFQQKAHMVKEQEET	5.2
ESTIVELGSIFQQVAHMVKEQEET	2.81
ESTIVELGSIFQQWAHMVKEQEET	3.17
ESTIVELGSIFQQNAHMVKEQEET	5.24

From the supplement of paper PMC10567573
